From patent publication US20190262327A1 (AstraZeneca / MedImmune, published 2019) come the findings set out here.

B1: Abet0332 scFv (scFv, V domains shown, not shown: small tags and cut ends)
VH: EVQLLESGGGLVQPGESLRLSCAASSDSWHTDIMWWVRQAPGKRLEWVSVIGNSNKKIAYADSVKGRFTISRDNSKNTLYLQMNSLRAEDTAVYYCAREWMDHSRPYYYYGMDVWGQGTLVTVSS
VL: SYELTQPPSVSVSPGQTASITCSGHNIGAKWVSWYQQKPGQSPILVIYRDDKRPSGIPERFSASNSGHTATLTISGTQATDEADYYCQAQGQVTRSFGGGTKLTVL
notes: Purified scFv expressed in E. coli
B2: Abet0343 scFv (scFv, V domains shown, not shown: small tags and cut ends)
VH: EVQLLESGGGLVQPGGSLRLSCAASGFNFNHQVMWWVRQAPGKGLEWVSVIGKTNENIAYADSVKGRFTISRDNSKNTLYLQMNSLRAEDTAVYYCAREWMDHSRPYYYYGMDVWGQGTLVTVSS
VL: QSVLTQPPSVSVSPGQTASITCSGHNLEDKFASWYQQKSGQSPVLVIYRDDKRPSGIPERFSASNSGHTATLTISGTQATDEADYYCSSQDTVTRVFGGGTKLTVL
notes: as for B1
B3: Abet0328 scFv (scFv, V domains shown, not shown: small tags and cut ends)
VH: EVQLLESGGGLVQPGGSLRLSCAASRDPFKADTMWWVRQAPRKRLEWVSVIGAHTTNSAYADSVKGRFTISRDNSKNTLYLQMNSLRAEDTAVYYCAREWMDRSRPYYYYGMDVWGQGTLVTVSS
VL: B2 VL with Q1S, S2Y, V3E, A18V, H25R, S39P, I57V
notes: as for B1
B4: Abet0329 scFv (scFv, V domains shown, not shown: small tags and cut ends)
VH: EVQLLESGGGLVQPGGSLRLSCAASTFNLKRETMWWVRQAPGKGLEWVSVIGSHQERTSYADSVKGRFTISRDNSKNTLYLQMNSLRAEDTAVYYCAREWMDHSRPYYYYGMDVWGQGTLVTVSS
VL: B2 VL with Q1S, S2Y, V3E, L27V, E28S, F31W, A32M, S33T, S39P
notes: as for B1
B5: Abet0381 scFv (scFv, V domains shown, not shown: small tags and cut ends)
VH: EVQLLESGGGLVQPGGSLRLSCAASSPSFPRETMWWVRQAPGKGLEWVSVIGTQPNRLTYADSVKGRFTISRDNSKNTLYLQMNSLRAEDTAVYYCAREWMDHSRPYYYYGIDVWGQGTLVTVSP
VL: B2 VL with Q1S, S2Y, V3E, V12A, A32V, S39P, D84N, V96A
notes: as for B1
B6: Abet0371 scFv (scFv, V domains shown, not shown: small tags and cut ends)
VH: EVQLSESGGGLVQPGGSLRLSCAASHDAFPFDTMWWVRQAPGKGLEWVSVIGSSGGTTVYADSVKGRFTVSRDNSKNTLYLQMNSLRAEDTAVYYCAREWMDHSRPYYYYGMDVWGQGTLVTVSS
VL: B1 VL with G28S, A29S, K30S, I44V, Q88S, A89S, G91D, Q92T, S96V
notes: as for B1
B7: Abet0383 scFv (scFv, V domains shown, not shown: small tags and cut ends)
VH: EVQLLESGGGLVQPGGSLKLSCAASGFTFDWYPMWWVRQAPGKRLEWISVIGADNAKIAYADSVKGRFTISRDNSKNTLYLQMNSLRAEDTAVYYCAREWMGHSRPYYYYGMDVWGQGTPVTVSS
VL: B2 VL with Q1S, S2Y, V3E, E28G, S39P
notes: as for B1
B8: Abet0374 scFv (scFv, V domains shown, not shown: small tags and cut ends)
VH: EVQLLESGGGLVQPGGSLRLSCAASGFQFKDTPMWWVRQAPGKGLEWVSVIGDQNHKKAYADSVKGRFTISRDNSKNTLYLQMNSLRAEDTAVYYCAREWMDHSRPYYYYGMDAWGQGTLVTVSS
VL: B2 VL with Q1S, S2Y, V3E, S13T, E28G, D29G, S39P, S66F
notes: as for B1
B9: Abet0344 scFv (scFv, V domains shown, not shown: small tags and cut ends)
VH: EVQLLESGGGLVQPGGSLSLSCAASGFTFSVYTMWWVRQAPGKGLEWVSVIGGNETRKAYADSVKGRFTISRDNSKNRLYLQMNSLRAEDTAVYYCAREWMDHSRPYYYYGMDVWGQGTLVTVSS
VL: B2 VL with S88A, S89T, T92N, V93F
notes: as for B1
B10: Abet0370 scFv (scFv, V domains shown, not shown: small tags and cut ends)
VH: B2 VH with N28H, N30P, H31M, Q32S, V33A, K53E, N55P, N57R, I58Q, N77S
VL: SYELTQPPSVSVSPGQTASITCTTPHFNSKFASWYQQKPGQSPVLVIYRDDKRPSGIPERFSASNSGHTATLTISGTQAMDEADYYCQAQDSTTRVFGGGTRLTVL
notes: as for B1
B11: Abet0379 scFv (scFv, V domains shown, not shown: small tags and cut ends)
VH: EVQLLESGGGLVQPGGSLRLSCAASGFDFAETPLWWVRQAPGERLEWVSVIGSNQNKTAYADSVKGRFTISRDNSKDTLYLQMNSLRAEDTAVYYCAREWMDHSRPYYYYGMDVWGQGTLVTVSS
VL: B2 VL with E82G, S88A, S89T, T92N, V93F
notes: as for B1
B12: Abet0319 scFv (scFv, V domains shown, not shown: small tags and cut ends)
VH: B6 VH with S5L, H26V, D27S, A28V, F29Y, P30N, F31K, V70I
VL: B1 VL with G28M, A29D, Q41R, I44A, Q88S, A89S, G91D, Q92T, S96V
notes: as for B1
B13: Abet0378 scFv (scFv, V domains shown, not shown: small tags and cut ends)
VH: B2 VH with N28P, N30E, H31T, Q32D, V33I, K53T, T54N, N55T, E56D, I58V
VL: B2 VL with Q1S, S2Y, V3E, S39P
B14: Abet0342 scFv (scFv, V domains shown, not shown: small tags and cut ends)
VH: B2 VH with N28D, N30R, H31R, Q32S, K53A, T54Q, N55T, E56Q, I58K
VL: B10 VL with T23S, T24G, P25H, H26N, F27L, N28E, S29D, H68D, R102K
notes: as for B1
B15: Abet0368 scFv (scFv, V domains shown, not shown: small tags and cut ends)
VH: EVQLLESGGGLVQPGGSLRLSCAASGFDFGPSPMWWVRQAPGKGLEWVSVIGKDTQNSTYADSVKGRFTISRDNSKDTLYLQMNSLKAEDTAVYYCAREWMDHSRPYYYYGMDVWGQGTLVTVSS
VL: B2 VL with Q1S, S2Y, V3E, A32T, T77A
notes: as for B1
B16: Abet0373 scFv (scFv, V domains shown, not shown: small tags and cut ends)
VH: EVQLLESGGGLVQPGGSLRLSCVASGFDFERSVMWWVRQAPGKRLEWVSVIGSGKTNITYADSVKGRFTISRDNSKNTLYLQMNSLRAEDTAVYYCAREWMDHSRPYYYYGMDVWGQGTLVTVSS
VL: B2 VL with Q1S, S2Y, V3E, S39P, G56E
notes: as for B1
B17: Abet0372 scFv (scFv, V domains shown, not shown: small tags and cut ends)
VH: EVQLLESGGGLVQPGGSLRLSCAASSDMFNIETMWWVRQAPGKGLEWVSVIGKGMNNVSYADSVKGRFTISRDNSKNTLYLQMNSLRAEDTAVYYCAREWMDHSRPYYYYGMDVWGQGTLVTVSS
VL: B2 VL with Q1S, S2Y, V3E, S39P
notes: as for B1

Positions count from the first letter of the chain named.

The first test deals with T1, biotinylated synthetic human Amyloid beta 1-42 peptide (human, UniProt P05067 672-713, biotinylated (N-terminal biotin in Example 4)).
T1 construct: domain: Amyloid beta 1-42 peptide; Numbers 1-42 count on the Amyloid beta peptide, not on APP; also called biotinylated human Amyloid beta 1-42; N-terminal biotin Abeta 1-42
T1 sequence (P05067 672-713 limits assumed): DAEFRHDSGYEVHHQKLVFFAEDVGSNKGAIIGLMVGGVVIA
Nature of the test: SPR (ProteOn); biotinylated peptide on streptavidin chip, scFv in solution. On the procedure:
These experiments were performed essentially as described by Karlsson et al. (Karlsson et al., 1991).
The chip surface was regenerated between cycles by a single 60 second injection of 10 mM Glycine pH 2.0 to remove scFv bound to the peptide.
Each scFv at 100-200 nM was sequentially passed over the peptide surface for a sufficient amount of time to observe sensorgrams that could be fitted to an appropriate binding model with confidence. An irrelevant scFv blank was subtracted from the main dataset to reduce the impact of any buffer artefacts or non-specific binding effects. An appropriate binding model was then fitted to the data.
Usually Kd stands for the constant that tells how readily two partners part at equilibrium. A lower Kd goes with a tighter complex. Usually koff stands for the first-order rate constant of dissociation. A high value points to fast dissociation. The kon is the rate constant with which the complex forms. The low end stands for slower complex formation, the high end for faster complex formation. Regarding B1, the dissociation constant Kd is 0.391 nM, the off-rate (koff) amounted to 0.000129 s⁻¹ and the kon stood at 329000 M⁻¹ s⁻¹.
With B2, the Kd stood at 0.188 nM, the off-rate constant (koff) amounted to 2.25e-05 s⁻¹ and the on-rate constant (kon) is 120000 M⁻¹ s⁻¹.
As to B3, binding was characterised by a dissociation constant (Kd) of 0.729 nM, the koff amounted to 0.000103 s⁻¹ and the on-rate (kon) was determined as 141000 M⁻¹ s⁻¹.
B4: the equilibrium dissociation constant (Kd) worked out at 0.701 nM, the off-rate constant (koff) worked out at 0.000138 s⁻¹ and the kon is 197000 M⁻¹ s⁻¹.
For the molecule B5, the dissociation constant Kd turned out to be 0.241 nM, the koff was found to be 5.14e-05 s⁻¹ and the on-rate constant (kon) was 213000 M⁻¹ s⁻¹.
For B6 the same measures were 0.762 nM, 0.000272 s⁻¹ and 357000 M⁻¹ s⁻¹.
As to B7, the equilibrium dissociation constant (Kd) turned out to be 0.217 nM, the koff amounted to 3.94e-05 s⁻¹ and the kon stood at 181000 M⁻¹ s⁻¹.
B8 gave a Kd of 0.236 nM, an off-rate constant (koff) of 6.04e-05 s⁻¹ and a kon of 256000 M⁻¹ s⁻¹.
As to B9, the Kd stood at 0.739 nM, the koff amounted to 5.73e-05 s⁻¹ and the kon amounted to 77500 M⁻¹ s⁻¹.
The matching figures for B10: 0.651 nM, 7.76e-05 s⁻¹ and 119000 M⁻¹ s⁻¹.
The matching figures for B11: 0.327 nM, 4.39e-05 s⁻¹ and 134000 M⁻¹ s⁻¹.
For B12 the same measures were 0.391 nM, 0.000129 s⁻¹ and 329000 M⁻¹ s⁻¹.
Consider B13, for which binding was characterised by a dissociation constant (Kd) of 0.472 nM, the dissociation rate constant (koff) was 6.41e-05 s⁻¹ and the association rate constant (kon) worked out at 136000 M⁻¹ s⁻¹.
The matching figures for B14: 0.421 nM, 5.73e-05 s⁻¹ and 136000 M⁻¹ s⁻¹.
The matching figures for B15: 0.482 nM, 9e-05 s⁻¹ and 187000 M⁻¹ s⁻¹.
In the case of B16, binding was characterised by a dissociation constant (Kd) of 0.483 nM, the koff stood at 8.92e-05 s⁻¹ and the on-rate constant (kon) stood at 185000 M⁻¹ s⁻¹.
For B17, the Kd is 0.724 nM, the koff was 0.000176 s⁻¹ and the kon stood at 243000 M⁻¹ s⁻¹.

The target of the next test is T1, biotinylated synthetic human Amyloid …. The test is described as follows: HTRF epitope competition; purified scFv titrated; competitor Abet0144-GL IgG1-TM. On the procedure: (§1) Two thousand and twenty four scFv chosen at random from selection rounds 3 and 4 of the targeted mutagenesis approach described in section 1.2 were expressed in bacteria to produce unpurified periplasmic scFv.
(§2) One thousand six hundred and seventy two scFv, randomly selected from selection rounds 9 to 11, were screened in an epitope competition assay as described in section 1.3.
(§3) Where the assay was performed more than once, the absolute range of IC₅₀ values is provided.
For orientation: TR-FRET usually uses a lanthanide donor and a delayed reading to cut background.
In general, IC50 refers to the concentration at which inhibition is half-maximal. In the case of B1, the IC50 turned out to be 0.91 nM.
On the same count and under the same terms, next, B2: 0.48 nM; B3: 0.55 nM.
On the same count and under the same terms, under B4 stands 0.63 nM; under B5, 0.47 nM; under B6, 0.5 nM.
The same measure, in the same setting: next, B7: 0.75 nM.
The molecule B8 returned an IC50 of 0.42 nM.
Same read-out and setting: next, B9: 0.77 nM; B10: 0.76 nM.
Consider B11, for which the IC50 was 0.69 nM.
Still for that read-out and setting: next, B12: 0.68 nM.
Still for that read-out and setting: next, B13: 0.97 nM; B14: 0.59 nM.
The same measure, in the same setting: next, B15: 0.55 nM; B16: 0.84 nM.
As to B17, the IC50 was 0.38 nM.

A further test shares this target. Nature of the test: HTRF epitope competition; purified scFv titrated; competitor Abet0144-GL IgG1-TM; range of repeats. As to the method:
as §1, §2, §3
B6 returned an IC50 of 0.46 to 0.53 nM.
The same measure, in the same setting: under B8 stands 0.41 to 0.43 nM; under B12, 0.52 to 0.76 nM.
As for B17, the half-inhibitory concentration (IC50) lay in the range of 0.26 to 0.49 nM.
